This note sets out measurements from US20260258115A1 (MAPP BIOPHARMACEUTICAL, published 2026).

Broadly, the Kd is the equilibrium constant for the complex coming apart.

The target of assay [1] is T1, RSV postfusion F (postF), subtype A (respiratory syncytial virus subtype A, UniProt P03420 26-513).
T1 construct: also called Postfusion subtype A; F deltaFP
In words: BLI. (In general: BLI is a label-free optical method that tracks binding on a fibre tip over time.)

For assay [2], the target named is T2, RSV prefusion F (preF), subtype B (respiratory syncytial virus subtype B).
T2 construct: also called Prefusion subtype B
Nature of the assay: BLI, IgG.

B1: ADI-19493 (antibody, V domains shown)
VH: QVQLQQWGAGLLKPSETLSLTCAVYGGSFSGYYWSWIRQPPGKGLEWIGEINHSGSTNYNPSLKSRVTISVDTSKNQFSLKLSSVTAADTAVYYCARLIENTRVGEYYFDYWGQGTLVTVSS
VL: not shown
notes: full-length IgG
Consider B1, for which the binding result in assay [1] is on record as “no binding”. This molecule registered a dissociation constant (Kd) in assay [2] of 0.0226 µM.

B2: ADI-24820 (antibody, V domains shown)
VH: QVQLVQSGAEVKKPGSSVKVSCKASGGTFSSYTISWVRQAPGQGLEWMGRIIPILGIANYAQKFQGRVTITADKSTSTAYMELSSLRSEDTAVYYCARDPPYLRAFDIWGQGTTVTVSS
VL: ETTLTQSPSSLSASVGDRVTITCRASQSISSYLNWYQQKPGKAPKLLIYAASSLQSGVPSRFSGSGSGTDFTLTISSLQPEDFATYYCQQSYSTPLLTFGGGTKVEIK
notes: full-length IgG
As to B2, the binding result in assay [1] is “no binding”. Binding in assay [2] was characterised by a dissociation constant (Kd) of 0.0385 µM.

B3: ADI-19465 (antibody, V domains shown)
VH: EVQLVESGGGLVKPGGSLRLSCAASGFTFSSYSMNWVRQAPGKGLEWVSSISSSSSYIYYADSVKGRFTISRDNAKNSLYLQMNSLRAEDTAVYYCAREGSSSWYYFDYWGQGTLVTVSS
VL: QSVVTQPPSVSGAPGQRVTISCTGSSSNIGAGYDVHWYQQLPGTAPKLLIYGNSNRPSGVPDRFSGSKSGTSASLAITGLQAEDEADYYCQSYDSSLSGPWVFGGGTKLTVL
notes: full-length IgG; also called Ab 170
Turning to B3, in assay [1], the binding result is given as “no binding”. The Kd in assay [2] was found to be 0.0194 µM.

B4: ADI-24826 (antibody, V domains shown)
VH: EVQLVESGGGLVKPGGSLRLSCAASGFTFSSYSMNWVRQAPGKGLEWVSSISSSSSYIYYADSVKGRFTISRDNAKNSLYLQMNSLRAEDTAVYYCARDRGYGSGALDYWGQGTLVTVSS
VL: QPVLTQPASVSGSPGQSITISCTGTSSDVGGYNYVSWYQQHPGKAPKLMIYDVSNRPSGVSNRFSGSKSGNTASLTISGLQAEDEADYYCSSYTSSSTVVFGGGTKLTVL
notes: full-length IgG; also called Ab 388
As to B4, the binding result in assay [1] is recorded as “no binding”. For the same molecule, the Kd in assay [2] was 0.00903 µM.

B5: ADI-19457 (antibody, V domains shown)
VH: EVQLLESGGGLVKPGGSLRLSCAASGFTFSSYSMNWVRQAPGKGLEWVSSISSSSSYIYYADSVKGRFTISRDNAKNSLYLQMNSLRAEDTAVYYCARQGYCSGGSCYHIDYWGQGTLVTVSS
VL: QSVVTQPPSVSGAPGQRVTISCTGSSSNIGAGYDVHWYQQLPGTAPKLLIYGNSNRPSGVPDRFSGSKSGTSASLAITGLQAEDEADYYCQSYDSSLSGWVFGGGTKLTVL
notes: full-length IgG
With B5, the binding result in assay [1] is reported as “no binding”. Besides, binding in assay [2] was put at a Kd of 0.0167 µM.

B6: ADI-25472 (antibody, V domains shown)
VH: EVQLVESGGGLVKPGGSLRLSCAASGFTFSSYSMNWVRQAPGKGLEWVSSISSSSSYIYYADSVKGRFTISRDNAKNSLYLQMNSLRAEDTAVYYCARDDSSSWYYFDYWGQGTLVTVSS
VL: QSVLTQPPSVSGAPGQRVTISCTGSSSNIGAGYDVHWYQQLPGTAPKLLIYGNSNRPSGVPDRFSGSKSGTSASLAITGLQAEDEADYYCQSYDSSLSGYVFGTGTKVTVL
notes: full-length IgG
Turning to B6, in assay [1], the binding result is “no binding”. The molecule also had a Kd in assay [2] of 0.0377 µM.

B7: ADI-24815 (antibody, V domains shown)
VH: EVQLVESGGGLVKPGGSLRLSCAASGFTFSSYSMNWVRQAPGKGLEWVSSISSSSSYIYYADSVKGRFTISRDNAKNSLYLQMNSLRAEDTAVYYCAREGYSSSSGYYYMDVWGKGTTVTVSS
VL: QSVLTQPPSVSGAPGQRVTISCTGSSSNIGAGYDVHWYQQLPGTAPKLLIYGNSNRPSGVPDRFSGSKSGTSASLAITGLQAEDEADYYCQSYDSSLSGSVFGTGTKVTVL
notes: full-length IgG
Take B7: the binding result in assay [1] is on record as “no binding”. In assay [2], this molecule had a Kd of 0.0291 µM.

B8: ADI-19467 (antibody, V domains shown)
VH: EVQLVESGGGLVKPGGSLRLSCAASGFTFSSYSMNWVRQAPGKGLEWVSSISSSSSYIYYADSVKGRFTISRDNAKNSLYLQMNSLRAEDTAVYYCASLSSSSELGYYFDYWGQGTLVTVSS
VL: QPVLTQPPSVSGAPGQRVTISCTGSSSNIGAGYDVHWYQQLPGTAPKLLIYGNSNRPSGVPDRFSGSKSGTSASLAITGLQAEDEADYYCQSYDSSLSGYVFGTGTKLTVL
notes: full-length IgG
Take B8: the binding result in assay [1] is “no binding”. For the same molecule, the Kd in assay [2] came to 0.0377 µM.

B9: ADI-24848 (antibody, V domains shown)
VH: EVQLVESGGGLVKPGGSLRLSCAASGFTFSSYSMNWVRQAPGKGLEWVSSISSSSSYIYYADSVKGRFTISRDNAKNSLYLQMNSLRAEDTAVYYCARDTVVAGIYFDYWGQGTLVTVSS
VL: QSVLTQPPSVSGAPGQRVTISCTGSSSNIGAGYDVHWYQQLPGTAPKLLIYGNSNRPSGVPDRFSGSKSGTSASLAITGLQAEDEADYYCQSYDSSLSGVVFGGGTKLTVL
notes: full-length IgG
As to B9, in assay [1], the binding result was “no binding”. Moreover, the Kd in assay [2] was 0.0356 µM.

B10: ADI-22771 (antibody, V domains shown)
VH: EVQLVESGGGLVKPGGSLRLSCAASGFTFSSYSMNWVRQAPGKGLEWVSSISSSSSYIYYADSVKGRFTISRDNAKNSLYLQMNSLRAEDTAVYYCARDYSSGWYYFDYWGQGTLVTVSS
VL: QPVLTQPPSVSGAPGQRVTISCTGSSSNIGAGYDVHWYQQLPGTAPKLLIYGNSNRPSGVPDRFSGSKSGTSASLAITGLQAEDEADYYCQSYDSSLSGSVFGGGTKLTVL
notes: full-length IgG; also called Ab 350
For B10, the binding result in assay [1] was “no binding”. In assay [2], the Kd amounted to 0.00941 µM.

B11: ADI-24833 (antibody, V domains shown)
VH: QVQLVESGGGLVKPGGSLRLSCAASGFTFSSYSMNWVRQAPGKGLEWVSSISSSSSYIYYADSVKGRFTISRDNAKNSLYLQMNSLRAEDTAVYYCARALTYYYDSSGHGADYWGQGTLVTVSS
VL: QSVVTQPPSVSGAPGQRVTISCTGSSSNIGAGYDVHWYQQLPGTAPKLLIYGNSNRPSGVPDRFSGSKSGTSASLAITGLQAEDEADYYCQSYDSSLSVVFGGGTKLTVL
notes: full-length IgG
With B11, the binding result in assay [1] is recorded as “no binding”. Moreover, binding in assay [2] was characterised by a dissociation constant (Kd) of 0.0114 µM.

B12: ADI-24855 (antibody, V domains shown)
VH: EVQLVESGGGLVKPGGSLRLSCAASGFTFSSYSMNWVRQAPGKGLEWVSSISSSSSYIYYADSVKGRFTISRDNAKNSLYLQMNSLRAEDTAVYYCARRYCTNGVCYDAFDIWGQGTMVTVSS
VL: QSVVTQPPSVSGAPGQRVTISCTGSSSNIGAGYDVHWYQQLPGTAPKLLIYGNSNRPSGVPDRFSGSKSGTSASLAITGLQAEDEADYYCQSYDSSLSYVFGTGTKVTVL
notes: full-length IgG
Turning to B12, the binding result in assay [1] is recorded as “no binding”. This molecule also displayed an equilibrium dissociation constant (Kd) in assay [2] of 0.028 µM.

B13: ADI-24847 (antibody, V domains shown)
VH: EVQLVESGGGLVKPGGSLRLSCAASGFTFSSYSMNWVRQAPGKGLEWVSSISSSSNYIYYADSVKGRFTISRDNAKNSLYLQMNSLRAEDTAVYYCARDRIAAYTFDYWGQGTLVTVSS
VL: QSVVTQPPSVSGAPGQRVTISCTGSSSNIGAGYDVHWYQQLPGTAPKLLIYGNSNRPSGVPDRFSGSKSGTSASLAITGLQAEDEADYYCQSYDSSLPYVFGTGTKVTVL
notes: full-length IgG
Turning to B13, in assay [1], the binding result is reported as “no binding”. In addition, the dissociation constant (Kd) in assay [2] was 0.04 µM.

B14: ADI-24861 (antibody, V domains shown)
VH: QVQLVQSGGGLVKPGGSLRLSCAASGFTFSSYSMNWVRQAPGKGLEWVSSISGGSSYIYYADSVKGRFTISRDNAKNSLYLQMNSLRAEDTAVYYCAREAYYYDSSGLKWFDPWGQGTLVTVSS
VL: QSVLTQPPSVSGAPGQRVTISCTGSSSNIGAGYDVHWYQQLPGTAPKLLIYGNSNRPSGVPDRFSGSKSGTSASLAITGLQAEDEADYYCQSYDSSLGWVFGGGTKLTVL
notes: full-length IgG
In the case of B14, the binding result in assay [1] is on record as “no binding”. The Kd in assay [2] was found to be 0.000461 µM.

B15: ADI-24840 (antibody, V domains shown)
VH: EVQLLESGGGLVKPGGSLRLSCAASGFTFSSYSMNWVRQAPGKGLEWVSSISSSSSYIYYADSVKGRFTISRDNAKNSLYLQMNSLRAEDTAVYYCARDQVYSYGYYFDYWGQGTLVTVSS
VL: QSVLAQPPSVSGAPGQRVTISCTGSSSNIGAGYDVHWYQQLPGTAPKLLIYGNSNRPSGVPDRFSGSKSGTSASLAITGLQAEDEADYYCQSYDSSLSGSHVVFGGGTKLTVL
notes: full-length IgG
Take B15: the binding result in assay [1] is listed as “no binding”. The molecule further displayed an equilibrium dissociation constant (Kd) in assay [2] of 0.0078 µM.

B16: ADI-24836 (antibody, V domains shown)
VH: EVQLLESGGGLVQPGRSLRLSCAASGFTFDDYAMHWVRQAPGKGLEWVSGISWNSGSIGYADSVKGRFTISRDNAKNSLYLQMNSLRAEDTALYYCAKDLRGGTYYYYGMDVWGQGTTVTVSS
VL: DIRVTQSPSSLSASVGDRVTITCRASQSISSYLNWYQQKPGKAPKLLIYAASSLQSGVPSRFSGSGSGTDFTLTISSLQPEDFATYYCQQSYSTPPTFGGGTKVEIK
notes: full-length IgG
As to B16, the binding result in assay [1] was “no binding”. Moreover, the dissociation constant (Kd) in assay [2] came to 0.00344 µM.

B17: ADI-24811 (antibody, V domains shown)
VH: QVQLVQSGAEVKKPGASVKVSCKASGYTFTSYDINWVRQATGQGLEWMGWMNPNSGNTGYAQKFQGRVTMTRNTSISTAYMELSSLRSEDTAVYYCARGLPGQWLEYYFDYWGQGTLVTVSS
VL: SYVLTQPPSVSVAPGKTARITCGGNNIGSKSVHWYQQKPGQAPVLVIYYDSDRPSGIPERFSGSNSGNTATLTISRVEAGDEADYYCQVWDSSSDHPVFGGGTKVTVL
notes: full-length IgG
As for B17, the binding result in assay [1] was “no binding”. The Kd in assay [2] stood at 0.00429 µM.

B18: ADI-19460 (antibody, V domains shown)
VH: QVQLQQWGAGLLKPSETLSLTCAVYGGSFSGYYWSWIRQPPGKGLEWIGEINHSGSTNYNPSLKSRVTISVDTSKNQFSLKLSSVTAADTAVYYCARGGITAYYYYYGMDVWGQGTTVTVSS
VL: not shown
notes: full-length IgG
B18: the binding result in assay [1] is recorded as “no binding”. In addition, binding in assay [2] was characterised by a dissociation constant (Kd) of 0.00601 µM.

B19: ADI-19507 (antibody, V domains shown)
VH: EVQLVESGGGLVKPGGSLRLSCAASGFTFSSYSMNWVRQAPGKGLEWVSSISSSSSYIYYADSVKGRFTISRDNAKNSLYLQMNSLRAEDTAVYYCAREVLTGDYLGWFDPWGQGTLVTVSS
VL: QSVVTQPPSVSGAPGQRVTISCTGSSSNIGAGYDVHWYQQLPGTAPKLLIYGNSNRPSGVPDRFSGSKSGTSASLAITGLQAEDEADYYCQSYDSSHWVFGGGTKLTVL
notes: full-length IgG
Regarding B19, the binding result in assay [1] is “no binding”. Further, the dissociation constant Kd in assay [2] stood at 0.0101 µM.

B20: ADI-24856 (antibody, V domains shown)
VH: QVQLVQSGAEVKKPGASVKVSCKASGYTFTSYGISWVRQAPGQGLEWMGWISAYNGNTNYAQKLQGRVTMTTDTSTSTAYMELRSLRSDDTAVYYCARAGIVVVPKYYYYMDVWGKGTTVTVSS
VL: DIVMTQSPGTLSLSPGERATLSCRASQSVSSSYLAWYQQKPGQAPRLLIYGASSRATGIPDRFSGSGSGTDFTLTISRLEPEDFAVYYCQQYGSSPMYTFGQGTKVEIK
notes: full-length IgG
B20: the binding result in assay [1] was “no binding”. Binding in assay [2] was put at a Kd of 0.00491 µM.
